The text below walks through data of patent publication US20090053180A1, “Tandem cardiac pacemaker system” (priority 2005, published 2009).

In series [1] the test system is newborn rat ventricular myocytes. Description: Whole-cell voltage clamp of expressed HCN current in newborn rat ventricular myocytes. The conditions noted are these: for V1/2 / s: fit of average data. It counts as cell-based. The protocol:
Adult rats were anesthetized with ketamine-xylazine before cardiectomy, and neonatal rats decapitated. Newborn rat ventricular myocyte cultures were prepared as previously described (Protas and Robinson, 1999). Briefly, 1-2-day-old Wistar rats were euthanized, hearts were quickly removed and ventricles were dissociated using a standard trypsinization procedure. Myocytes were harvested, preplated to reduce fibroblast proliferation, cultured initially in serum-containing medium (except when being transfected with plasmids as described below), and then incubated in serum free medium (SFM) at 37° C., 5% CO2 after 24 h. Action potential studies were conducted on 4-day-old monolayer cultures plated directly onto fibronectin-coated 9×22 mm glass coverslips. For voltage clamp experiments, 4-6 day old monolayer cultures were resuspended by brief (2-3 min) exposure to 0.25% trypsin, then replated onto fibronectin-coated coverslips and studied within 2-8 h.
Adenoviral infection of the newborn ventricular myocytes was performed on cell monolayer cultures 4 days after initial plating. Cells were exposed to a virus-containing mix (m.o.i. 20, in 250 μl of culture medium) for 2 h, rinsed twice and incubated in SFM at 37° C., 5% CO2 for 24-48 hours prior to the cells being resuspended as described above for electrophysiological study.
The whole-cell patch clamp technique was employed to record mHCN2 current from cultured myocytes. Experiments were carried out on cells superfused at 35° C. The external solution contained (mM): NaCl, 140; NaOH, 2.3; MgCl2, 1; KCl, 10; CaCl2, 1; HEPES, 5; glucose, 10; pH 7.4. MnCl2 (2 mM) and BaCl2 (4 mM) were added to block other currents. The pipette solution contained (mM): aspartic acid, 130; KOH, 146; NaCl, 10; CaCl2, 2; EGTA-KOH, 5; Mg-ATP, 2; HEPES-KOH, 10; pH 7.2.
To measure the HCN activation curve, a standard two-step protocol was employed. Hyperpolarizing steps from −25 to −135 mV for mHCN2 and from −5 or −15 to −135 mV for mE324A were applied from a holding potential of −10 mV, followed by a tail current step (to −125 or −135 mV). The duration of test steps was longer at less hyperpolarized potential for mHCN2 channels, to more closely approach steady-state activation at all voltages. The normalized plot of tail current versus test voltage was fit with a Boltzmann function and then the voltage of half maximum activation (V1/2) and slope factor(s) were defined from the fitting. Activation kinetics were determined from the same traces, while deactivation kinetics were determined from traces recorded at each test potential after achieving full activation by a prepulse to −135 mV. Time constants were then obtained by fitting the early time course of activation or deactivation current traces with a monoexponential function; the initial delay and any late slow activation or deactivation phase were ignored (Qu et al., 2001; Altomare et al., 2001). Current densities are expressed as the value of the time-dependent component of current amplitude, measured at the end of the test potential and normalized to cell membrane capacitance. Records were not corrected for liquid junction potential, which was previously determined to be 9.8 mV under these conditions (Qu et al., 2001).

For a further series, the system named is Xenopus oocytes. Description: Two-microelectrode voltage clamp of expressed HCN current in Xenopus oocytes. It counts as cell-based, Xenopus laevis.
The test system of series [2] is dogs with complete AV block. Description: Tandem biological and electronic pacemakers in dogs with complete AV block (injection into left bundle branch). It counts as in vivo, dog. The protocol: Adult mongrel dogs weighing 22-25 kg were anesthetized with propofol 6 mg/kg IV and inhalational isoflurane (1.5%-2.5%). Using a steerable catheter, saline (n=5), AdmHCN2 (n=6) or AdmE324A (n=4) were injected into the left bundle branch (LBB) as described previously (Plotnikov et al., 2004). In 2 additional dogs AdmE324A was injected into the LV septal myocardium as an internal control. Complete AV block was induced via radiofrequency ablation and each site of injection was paced via catheter electrode to distinguish electrocardiographically the origin of the idioventricular rhythm during the follow up period.
An electronic pacemaker (Discovery II, Flextend lead; Guidant, Indianapolis, Ind.) was implanted and set at VVI 45 bpm. ECG, 24 hour Holter monitoring, pacemaker log record check, and overdrive pacing at 80 bpm were performed daily for 14 days. To evaluate beta-adrenergic responsiveness, on day 14, epinephrine (1.0, 1.5 and 2.0 μg/kg/min for up to 10 min each) was infused to an endpoint of a 50% increase in idioventricular rate or ventricular arrhythmia (single ventricular premature beats having a morphology other than that of the dominant idioventricular rhythm or ventricular tachycardia), whichever occurred first. If none of the above responses was observed within 10 min after onset of the maximal dose of 2 μg/kg/min, the infusion was terminated.
Data are presented as means±SEM. […] One-way ANOVA was used to evaluate the effect of an implanted construct on electrophysiological parameters. Subsequent analysis was performed using Bonferroni's test where equal variances were assumed and the Games-Howell test where variances were unequal. A two-way contingency table analysis was conducted to evaluate whether epinephrine had different effects across three groups. Data were analyzed using SPSS for Windows software (SPSS, Inc.). P<0.05 was considered to be significant.
Complete AV block was induced via radiofrequency ablation, and electronic pacemakers were implanted into the right ventricular apical endocardium and set a VV1 45 bpm. ECG and 24-h monitoring were performed daily for 14 days. Beta-adrenergic responsiveness was also evaluated as described above.
Escape time was evaluated daily by performing three 30-s periods of ventricular overdrive pacing at 80 bpm followed by an abrupt cessation of pacing. The average time between the final electronically paced beat and the first intrinsic beat was then determined. […] There was a different result with regard to basal heart rates throughout the 14-day period, however.

Series [3] has as its system cell-free patches from Xenopus oocytes. Conditions: cited from earlier work.
Where [4] appears, read: 10 μM cAMP in the pipette solution.

Entries after “also recorded” stand apart in the source; their conditions may differ. A value given as a limit tells only on which side of the number the result lay.

B1: mE324A: mHCN2 channel with E324A point mutation, expressed from cRNA or adenoviral construct AdmE324A (protein, UniProt O88703 1-863, looked up, variant E324A)
Potassium/sodium …: MDARGGGGRPGDSPGTTPAPGPPPPPPPPAPPQPQPPPAPPPNPTTPSHPESADEPGPRARLCSRDSACTPGAAKGGANGECGRGEPQCSPEGPARGPKVSFSCRGAASGPSAAEEAGSEEAGPAGEPRGSQASFLQRQFGALLQPGVNKFSLRMFGSQKAVEREQERVKSAGAWIIHPYSDFRFYWDFTMLLFMVGNLIIIPVGITFFKDETTAPWIVFNVVSDTFFLMDLVLNFRTGIVIEDNTEIILDPEKIKKKYLRTWFVVDFVSSIPVDYIFLIVEKGIDSEVYKTARALRIVRFTKILSLLRLLRLSRLIRYIHQWAEIFHMTYDLASAVMRICNLISMMLLLCHWDGCLQFLVPMLQDFPSDCWVSINNMVNHSWSELYSFALFKAMSHMLCIGYGRQAPESMTDIWLTMLSMIVGATCYAMFIGHATALIQSLDSSRRQYQEKYKQVEQYMSFHKLPADFRQKIHDYYEHRYQGKMFDEDSILGELNGPLREEIVNFNCRKLVASMPLFANADPNFVTAMLTKLKFEVFQPGDYIIREGTIGKKMYFIQHGVVSVLTKGNKEMKLSDGSYFGEICLLTRGRRTASVRADTYCRLYSLSVDNFNEVLEEYPMMRRAFETVAIDRLDRIGKKNSILLHKVQHDLSSGVFNNQENAIIQEIVKYDREMVQQAELGQRVGLFPPPPPPQVTSAIATLQQAVAMSFCPQVARPLVGPLALGSPRLVRRAPPGPLPPAASPGPPAASPPAAPSSPRAPRTSPYGVPGSPATRVGPALPARRLSRASRPLSASQPSLPHGVPAPSPAASARPASSSTPRLGPAPTARTAAPSPDRRDSASPGAASGLDPLDSARSRLSSNL
In the case of B1, in series [1], the “activation kinetics compared with mHCN2” value is recorded as “faster” and the “activation threshold compared with mHCN2” value is given as “less negative”. In series [1] (setting [4]), the “shift of V1/2 by cAMP” value is reported as 5.6 mV, the V1/2 is given as −40.7 mV and the s is recorded as 8.7 mV. Moreover, the “percentage of myocytes expressing current” value in series [1] (6 matched cell cultures) came to 36.6%. For the same molecule, the “current density, times smaller than that of mHCN2” value in series [1] (at −135 mV) is on record as “about 2.5 times”. In series [1] (absence of cAMP), this molecule gave a V1/2 of −46.3 mV and a s of 9.1 mV. This molecule yielded a slope factor s in series [1] (mean of individual Boltzmann fits) of 9.6±0.4 mV. For the same molecule, in series [1] (mean of individual Boltzmann fits, adenoviral infection), the “V1/2 (voltage of half maximum activation)” value is −46.9±1.2 mV. For the same molecule, the current density in series [1] (measured at −135 mV) amounted to 21.0±3.5 pA/pF. The “effect of Cs+ on inward current” value with Xenopus oocytes (5 mM Cs+) is “blocked; also recorded: large inhibition”. The reversal potential in the series with Xenopus oocytes (fully activated current/voltage relation) is about −40 mV. In addition, in series [2] (14 days, electronic pacemaker set at VVI 45 bpm), the “beats triggered by the electronic pacemaker, of all beats” value came to 36±7%. For the same molecule, in series [2] (day 14), the “arrhythmias during epinephrine infusion” value is “no arrhythmias were seen”. The “mean basal heart rate compared with saline group” value in series [2] (days 1-7 and 8-14) is recorded as “significantly faster”. In addition, the “animals that achieved a 50% increase in rate at the lowest epinephrine dose” value in series [2] (epinephrine 1 μg/kg/min, day 14) worked out at 100%. The “increase in heart rate” value in series [2] (lowest dose of epinephrine) was over 50%. In series [2] (representative animal, day 14), the “control rate prior to epinephrine” value worked out at 52 bpm. Besides, the rate with epinephrine in series [2] (representative animal, epinephrine 1 μg/kg/min) was 81 bpm.

B2: HCN1: HCN1 isoform of hyperpolarization-activated, cyclic nucleotide-gated ion channel (protein, UniProt O60741 1-890, looked up)
Potassium/sodium …: MEGGGKPNSSSNSRDDGNSVFPAKASATGAGPAAAEKRLGTPPGGGGAGAKEHGNSVCFKVDGGGGGGGGGGGGEEPAGGFEDAEGPRRQYGFMQRQFTSMLQPGVNKFSLRMFGSQKAVEKEQERVKTAGFWIIHPYSDFRFYWDLIMLIMMVGNLVIIPVGITFFTEQTTTPWIIFNVASDTVFLLDLIMNFRTGTVNEDSSEIILDPKVIKMNYLKSWFVVDFISSIPVDYIFLIVEKGMDSEVYKTARALRIVRFTKILSLLRLLRLSRLIRYIHQWEEIFHMTYDLASAVVRIFNLIGMMLLLCHWDGCLQFLVPLLQDFPPDCWVSLNEMVNDSWGKQYSYALFKAMSHMLCIGYGAQAPVSMSDLWITMLSMIVGATCYAMFVGHATALIQSLDSSRRQYQEKYKQVEQYMSFHKLPADMRQKIHDYYEHRYQGKIFDEENILNELNDPLREEIVNFNCRKLVATMPLFANADPNFVTAMLSKLRFEVFQPGDYIIREGAVGKKMYFIQHGVAGVITKSSKEMKLTDGSYFGEICLLTKGRRTASVRADTYCRLYSLSVDNFNEVLEEYPMMRRAFETVAIDRLDRIGKKNSILLQKFQKDLNTGVFNNQENEILKQIVKHDREMVQAIAPINYPQMTTLNSTSSTTTPTSRMRTQSPPVYTATSLSHSNLHSPSPSTQTPQPSAILSPCSYTTAVCSPPVQSPLAARTFHYASPTASQLSLMQQQPQQQVQQSQPPQTQPQQPSPQPQTPGSSTPKNEVHKSTQALHNTNLTREVRPLSASQPSLPHEVSTLISRPHPTVGESLASIPQPVTAVPGTGLQAGGRSTVPQRVTLFRQMSSGAIPPNRGVPPAPPPPAAALPRESSSVLNTDPDAEKPRFASNL
On to B2, for which the “shift of activation curve to more positive potentials by cAMP” value in series [3] is recorded as 4 mV.
